Laboratory results taken from paper PMC12316982 (Nature Communications, 2025).
Where a chain is given by its changes, count along the chain named.

Experiments:
Test in all cases: ELISA
Conditions in all cases: both partners purified
[1] = molecular target: stabilized neuraminidase protein (sNAp) of A/New Caledonia/20/1999 (NC99, H1N1) (Influenza A virus A/New …, UniProt Q7TG96, stabilised)
[2] = molecular target: stabilized neuraminidase protein (sNAp) of A/Michigan/45/2015 (MI15, H1N1) (Influenza A virus A/Michigan/45/2015 …, UniProt A0A0X9QTS2, stabilised)
[3] = molecular target: T1, NA of the influenza B-Victoria lineage virus B/Colorado/06/2017 (B/Vic CO17) (Influenza B virus B/Colorado/06/2017 …, UniProt A0A1X9RX69, strain)
T1 construct: not shown: His6, N-terminal, kept

Measured: binding result

B1: NCS.1 (human IgG1) (antibody, V domains shown)
VH: QVQLPESGPRLVKPSETLSLTCSVSGESISSGGYYWTWIRQHPGKGLEWIGNIFDTGSTHYSPSLKTRLTISIDTSKNQFYLRLNSATAADTAVYYCARVGYSLETDRPYYFGLDVWGQGTTVTVSS
VL: DIVMTQSPLSLPVTPGEPASISCRSSQSLLHSNGYTYLDWYLQKPGQSPQLLIYLASNRASGVPDRFSGSGSGTYFTLKISRVEAEDVGVYYCMQAVQTPWTFGQGTKVEIK
binds: all assays above

B2: NCS.1.1 (human IgG1) (antibody, V domains shown)
VH: B1 VH with P5Q, H60D, Y102F, F112L
VL: B1 VL with Y54S, L55F, A56T
binds: all assays above

B3: NCS.1.3 (human IgG1) (antibody, V domains shown)
VH: B1 VH with P5Q, H60D, N85T, Y102F, F112L
VL: B1 VL with S10T, L55F, T99S
binds: all assays above
